The target of experiment [1] is HCV Core1-169 (HCV-1) (UniProt P26664). Nature of the experiment: EIA, coated core1-169.
Experiment [2] shares this target. The experiment can be described thus: SPR sandwich, C11-14 capture.
For experiment [3] the target is unchanged. Nature of the experiment: SPR sandwich, C11-9 capture.
The target is the same in experiment [4]. The experiment can be described thus: SPR sandwich, C11-3 capture.
Experiment [5] has as its target biotinylated HCV core peptide 141-161 (Peptide 2) (HCV-1). The experiment can be described thus: EIA, captured mAb.
Experiment [6] deals with biotinylated HCV core peptide 151-171 (Peptide 3) (HCV-1). The experiment can be described thus: EIA, captured mAb.
The target in experiment [7] is biotinylated HCV core peptide 134-154 (Peptide 1) (HCV-1). Nature of the experiment: EIA, captured mAb.
For experiment [8], the target named is HCV Core1-169 (HCV-1) (UniProt P26664). Nature of the experiment: SPR sandwich, C11-7 capture.
Experiment [9] concerns the target T1, HCV Core1-169 (HCV-1), P26664.
T1 chain: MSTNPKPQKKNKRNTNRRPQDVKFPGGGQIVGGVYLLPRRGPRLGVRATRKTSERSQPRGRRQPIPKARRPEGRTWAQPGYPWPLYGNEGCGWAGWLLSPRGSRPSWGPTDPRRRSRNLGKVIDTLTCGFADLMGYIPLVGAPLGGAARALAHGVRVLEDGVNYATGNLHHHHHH
Nature of the experiment: SPR sandwich, C11-7 capture. The settings on record: remark: other sources report otherwise.

Experiment [10] shares this target. The experiment can be described thus: SPR sandwich, C11-9 capture. The settings on record: remark: other sources report otherwise.
For experiment [11] the target is unchanged. The experiment can be described thus: SPR sandwich, C11-14 capture. To be noted: remark: other sources report otherwise.
Experiment [12] has the same target. Nature of the experiment: SPR sandwich, C11-3 capture. The settings on record: remark: other sources report otherwise.
In experiment [13] the target is biotinylated HCV core peptide 141-161 (Peptide 2) (HCV-1). Nature of the experiment: EIA, captured mAb. This is another data set of the same source.
The target in experiment [14] is biotinylated HCV core peptide 134-154 (Peptide 1) (HCV-1). Nature of the experiment: EIA, captured mAb. This is another data set of the same source.
Experiment [15] addresses biotinylated HCV core peptide 151-171 (Peptide 3) (HCV-1). Nature of the experiment: EIA, captured mAb. This is another data set of the same source.

Where a chain is given by its changes, count along the chain named. Read-outs that look alike come from different tables or passages of the source.

B1: HCV 208B-353 (antibody, V domains shown)
VH: EVQLVESGGDLVKPGGSLKLSCAASGFTFNHYGMSWVRQPPDKRLEWVATISSGGGYTYYPDSVKGRFTISRDNAKDTLSLQMSSLRSGDTAVYYCASLYGSLFAYWGQGTLVTVSA
VL: DIVMTQSQKFMSTTVGDRVRVTCKASQNVGTAVAWYQQKPGQSPKLLIYSASNRYTGVPDRFTGSGSGTDFTLTITNMQSEDLADYFCQQYSTYPLTFGSGAKLEIKR
On to B1, for which the OD (A492) with HCV Core1-169 (HCV-1) [1] was found to be 0.3 OD. For the same molecule, the expected % binding was 2.4% with HCV Core1-169 (HCV-1) [2], below 1% with HCV Core1-169 (HCV-1) [3], 1.9% in the experiment with HCV Core1-169 (HCV-1) [4] and 2.6% with HCV Core1-169 (HCV-1) [8]. The values for the Reactivity (OD492) in [5], in experiment [6] and in experiment [7] were 2.47 OD, 0.07 OD and 0.07 OD, respectively.

B2: HCV 208A-983 (antibody, V domains shown)
VH: QGQMQQSGAELVKPGASVKLSCKTSGFTFSSSYFSWLKQKPGQSLEWIAWIYAGTGNTIYNQKFTDKAQLTVDTASSTAFMQLSSLTIEDSAIYYCAISGTGFTYWGQGTLVTVSA
VL: DVLMTQTPLSLPVNLGDQASISCRSSQSLLHSNGNTYLEWFLQKPGQSPKLLIYNVSNRFSGVPDRFSGSGSGTDFTLKISRVEAEDLGVYYCFQGSHVPFTFGSGTKLAIKR
As for B2, the expected % binding in experiment [9], in [10], in experiment [11] and in experiment [12] was below 1% each time. Besides, the Reactivity (OD492) in experiment [5] came out at 0.4 OD; in experiment [6], 0.05 OD; in [7], 3.03 OD.

B3: HCV 208A-692 (antibody, V domains shown)
VH: B2 VH with V12A, F34I, Y52F, I59N, A75S, F80Y, I88T
VL: B2 VL with D1E, T7S, N14S, L30E, K44R, S48P, N55K, N58S
B3: the Reactivity (OD492) in experiment [6] was 0.07 OD; in experiment [7] it was 3.67 OD; in experiment [13] it was 0.38 OD.

B4: HCV 208B-471 (antibody, V domains shown)
VH: QGQLQQSGPVLVKPGASEILYCKTSGFTFSSTYISWLKQKPGQSLEWIAWIYAGTGATNYNQKFTGKAQLTVDASSNTAYMHFSGLTPEDSAIYYCAISGAGVYWGQGTLVTVSA
VL: B2 VL with L3V, N14S, F41Y, K50N, T77A, E84G, F101L, S105A, A110E, I111L
On to B4, for which the expected % binding in [9], in experiment [10], in experiment [11] and in experiment [12] was below 1% in each case. The Reactivity (OD492) in experiment [5] worked out at 0.11 OD; in experiment [6] it was 0.08 OD; in experiment [7] it was 1.62 OD.

B5: HCV 208A-967 (antibody, V domains shown)
VH: QVQLEESGPGLVAPSQSLSITCTVSGFSLTSYGVHWVRQPPGKGLEWLGVIWAVGSINYNSALMSRLSISKDNSKSQVFLKMNSLRTDDTAMYYCARDRTTATPFFDYWGQGTTLTVSS
VL: DIVLTQSPASLAGSLGKRAPISCKASESVNFFGTNLIHWYQQKPGQPPKLLIYHASNLKTGVPARFRGRGSKTNFPLPIDPVEENDVAIYYCLQNRKIPLTFGVGTKLELKR
B5: the expected % binding with HCV Core1-169 (HCV-1) [2], with HCV Core1-169 (HCV-1) [3], with HCV Core1-169 (HCV-1) [4] and with HCV Core1-169 (HCV-1) [8] was below 1% throughout. Also, the Reactivity (OD492) in experiment [14] was 0.52 OD; in [13] it was 0.73 OD; in experiment [15] it was 0.18 OD.

B6: HCV 208B-174 (antibody, V domains shown)
VH: EVKLEESGGGLVQPGGSMKLSCVASGFSFSSYWMSWVRQSPEKGLDWVAEIRLRSDNYATHYAESVKGRFTISRDDSISRLYLQMNTLRAEDTGIYYCTWMTYWGQGTLVTVSA
VL: QNVLTQSPAIMSASPGEKVTMSCSASSSVTYMFWYQLKPESSPRLLIYDTSNLASGVPVRFSGSGSGTSYSLTISRMEAEDAATYYCQEWSSYPLTFGAGTKLDLKR
Consider B6, for which the expected % binding in [9] was 1.5%; in experiment [10], below 1%; in experiment [11] it was 1.6%; in experiment [12] it was 1.6%. Also, the values for the Reactivity (OD492) in [5], in experiment [6] and in experiment [7] were 1.26 OD, 0.07 OD and 0.08 OD, respectively.

The values above are taken from patent publication US9371374.
